In patent US20160333065A1:

Biological target: HLA-A1 (A*0101) (human)
Assay: cell competition vs YLEPAC(FI)AKY, stripped CAA B-LCL, FACS

An IC50 of 1000 nM was found for ITDDQLLAL (modifications not checked) [PRAME peptide …] in this work.
